Columns and labels:
HeLa-EF1a-Luc2 cells = test: Luciferase reporter activity in HeLa-EF1a-Luc2 cells (background control); type: cell-based, human; settings: 1 μM Stattic, 150 ng/mL IL24, 8 hours, vs DMSO
Protocol: (§1) Hela cells were cultured to 20% confluency on the day of infection. After removing the culture medium, lentivirus expressing Luc2 (LVX-EIP-Luc2) was mixed with a culture medium and treated to the cells. After adding 2 μg of Polybrene per 1 mL of the virus, the plate was carefully shaken for mixing. After culturing for 15 hours under the condition of 37° C. and 5% CO2, the culture medium was replaced with a fresh one. 48 hours later, the transduced cells were cultured further and recombinant HeLa-EF1a-Luc2 cells were selected by culturing for 2 weeks in a medium containing 2 μg/mL puromycin as an antibiotic.
(§2) HeLa-IL24HTS cells and HeLa-EF1a-Luc2 cells were cultured on a 96-well plate at a concentration of 2.0×10^4 cells/well, respectively. After treating the cells with a vehicle (DMSO) (no Stattic) or 1 μM Stattic (CAS No: 19983-44-9), which is a STAT3 inhibitor, while treating with 150 ng/mL IL24 and culturing for 8 hours, luciferase activity was measured using a luciferase assay system (Promega).

IL24-STAT3 signaling [1] = test: IL24-induced STAT3 luciferase reporter activity in HeLa-IL24HTS cells, inhibitor test; type: cell-based, human; settings: 1 μM Stattic, 150 ng/mL IL24, 8 hours, vs DMSO
Protocol: as §1, with “The selected and established HeLa-4.47” for “Hela”, “hIL22RA1, hIL20RB or hSTAT3” for “Luc2 (LVX-EIP-Luc2)”, “HeLa-IL24HTS” for “HeLa-EF1a-Luc2”, “puromycin, 5 μg/mL blasticidin S and 1,000 μg/mL G418” for “puromycin”, “antibiotics. Through this experiment, HeLa-4.47-hIL22RA1-hIL20RB-hSTAT3 cells that stably express all of hIL22RA1, hIL20RB and hSTAT3 were established and named HeLa-IL24HTS.” for “an antibiotic.”
as §2

IL24-STAT3 signaling [2] = test: Luciferase activity of pGL4.47 HeLa clones co-transfected with hIL22RA1, hIL20RB and hSTAT3, with or without IL24; type: cell-based, human; settings: 150 ng/mL IL24, 24 hours, clone 12 (HeLa-4.47)
Protocol: 2 mg of pGL4.47 (Promega, E4041), which is a STAT3 reporter plasmid, was linearized using the Pst1 restriction enzyme. The linearized plasmid was transfected into Hela cells using polyethyleneimine (Polysciences). 48 hours later, the cells were transferred to a 100-mm culture dish and only the transfected cells were selected by treating with 500 μg/mL hygromycin and culturing for 2 weeks. The selected transfected cells were cultured on a 96-well plate. The cells were dispensed at 0.5 cell per well. 33 clones were obtained by culturing further for 3 weeks. Each clone was mixed with pCMV-SPORT6-hIL22RA1 (Korea Human Gene Bank), pCMV3-hIL20RB (SinoBiological) and pCMV3-hSTAT3 (SinoBiological) at 1:1:1 for co-transfection. The transfected cells were treated or untreated with 150 ng/mL IL24. After culturing for 24 hours, luciferase activity was measured by luciferase assay. The clone with the strongest activity was established and named HeLa-4.47.
HeLa cells were transfected with pGL4.47 and selecting using hygromycin to obtain 33 clones. After co-transfecting each clone by mixing with pCMV-SPORT6-hIL22RA1, pCMV3-hIL20RB and pCMV3-hSTAT3 at 1:1:1, luciferase activity was measured using a luciferase assay system (Promega) for treatment with 150 ng/mL IL24 (IL24(+)) or absence of treatment (IL24(−)).

IL24-STAT3 signaling [3] = test: Reporter activity of HeLa-IL24HTS cells treated with IL24 at different concentrations; type: cell-based, human; settings: 15 ng/mL or higher IL24, 24 hours
Protocol: The HeLa-4.47 cells established in Test Example 2 were treated with lentivirus expressing hIL22RA1, hIL20RB or hSTAT3 and selected with 2 μg/mL puromycin, 5 μg/mL blasticidin S and 1,000 μg/mL G418 as antibiotics to obtain HeLa-4.47-hIL22RA1-hIL20RB-hSTAT3 cells (HeLa-IL24HTS) which stably express all of hIL22RA1, hIL20RB and hSTAT3. The specific process of preparing the HeLa-IL24HTS cell line was the same as described above.
After treating the prepared HeLa-IL24HTS cells with IL24 at different concentrations (0.15 ng/mL, 1.5 ng/mL, 15 ng/mL and 150 ng/mL) and culturing for 24 hours, luciferase activity was measured using a luciferase assay system (Promega). […] It can be seen that the HeLa-IL24HTS cells show strong reporter induction of 60 fold or higher in the presence of 15 ng/mL or higher IL24.

IL24-STAT3 signaling [4] = settings: earlier literature reporter assay; cited from earlier work

Row | IL24(+)/IL24(−) ratio of luciferase activity (IL24-STAT3 signaling [2]) | Molecule | change in reporter activity (HeLa-EF1a-Luc2 cells) | reporter activity inhibited (IL24-STAT3 signaling [1]) | reporter induction (IL24-STAT3 signaling [3]) | increase of reporter signal by IL24 (IL24-STAT3 signaling [4])
1 | – | O=[N+]([O-])c1ccc2c(c1)S(=O)(=O)C=C2 [Stattic] | no significant change | about 80% | – | –
2 | 150-200 | IL24: cytokine of the IL-10 family that signals through IL-20R1/IL-20R2 and IL-22R1/IL-20R2 and activates STAT3 (protein, UniProt Q13007 52-206, looked up) Interleukin-24: QEFHFGPCQVKGVVPQKLWEAFWAVKDTMQAQDNITSARLLQQEVLQNVSDAESCYLVHTLLEFYLKTVFKNYHNRTVEVRTLKSFSTLANNFVLIVSQLQPSQENEMFSIRDSAHRRFLLFRRAFKQLDVEAALTKALGEVDILLTWMQKFYKL | – | – | ≥ 60 fold | about 3 times

— patent US20240200055A1, “TRANSFORMED CELL LINES EXPRESSING IL24-STAT3 AND METHODS FOR SCREENING AGENTS FOR TREATING BY TARGETING IL24-STAT3 SIGNALING PATHWAY USING THE SAME” (UIF (University Industry Foundation), Yonsei University, priority 2022, published 2024)
